According to US20220119448A1:

Columns and labels:
[1] = molecular target: GLP-2R (GLP-2 receptor) on GLP-2R/Luc-CHO cells; experiment: cell-based or functional assay
GHR on Ba/f3-GHR cells = experiment: cell-based or functional assay

Substance | in vitro cytological activity, EC50 (luciferase reporter, GLP-2R/Luc-CHO cells) [1] [nM] | In vitro cytological activity, EC50 (Ba/f3-GHR cells, MTT) (GHR on Ba/f3-GHR cells) [nM]
GLP-2 (Hangzhou Chinese Peptide Biochemical Co., Ltd., Cat. No: GLUC-002A) | 5.2 | 
hGH (human auxin) (from UniProt P01241 27-217) (ligand) |  | 0.54
